Test results reported in patent US10538591B2, “Anti-fibulin-3 antibodies and uses thereof” (THE BRIGHAM AND WOMEN'S HOSPITAL, INC., priority 2014, dated 2020).
“Also recorded” adds a separate entry of the source.

How the values were obtained:
Normal human astrocytes = experiment: Viability of normal human astrocytes; format: cell-based; settings: mAb428.2, conditions not given
Experimental: Normal human astrocytes and glioma cell lines (U251MG, U87MG and CNS1) were cultured as adherent cells in 96-well plates (10,000 cells/well). Three primary cultures of glioma-initiating cells (GBM8, GBM9 and GBM34) were cultured in suspension using appropriate medium in 96-well plates (25,000 cells/well). All cells were exposed to anti-Fib3/911 (50 μg/mL) or its pre-immune serum for 72 h, followed by measurement of cell viability as indicated in FIG. 5. […] In contrast, normal astrocytes were not affected by the antibody (** p<0.01; *** p<0.001, one-way ANOVA for each cell line)
Antibodies against fibulin-3 induce cytotoxicity in a wide range of glioma cells but not in normal cells. […] This antibody was added to cultures of different glioma cell lines (U251MG, U87MG, CNS1) as well as cultures of glioma initiating cells that produce large amounts of fibulin-3 (GBM8, GBM9, GBM34). […] Vehicle control (PBS) and the pre-immune serum of anti-fibulin-3/91I were tested as controls. Cell viability was measured after 72 hours. […] Neither the vehicle nor the pre-immune serum affected cell viability (FIG. 7).

[1] = system: fibulin-3-induced Notch signaling; experiment: Notch-reporter luminescent assay in CNS1 glioma cells transfected with fibulin-3 cDNA; format: cell-based; settings: for effect on fibulin-3-induced Notch activity: monoclonal antibody 100 μg/ml, 0, 2, 6 and 24 h
Experimental: Glioma cells (CNS I line) carrying a Notch-reporter luminescent system were transfected with fibulin-3 cDNA (or a control plasmid) and incubated in serum-free conditions for 24 h.
Antibodies against fibulin-3 block the molecular mechanism triggered by this protein. To confirm whether the cytotoxic effects were related to specific inhibition of the molecular mechanisms of fibulin-3, the antibody anti-Fib3/911 was added to glioma cells (CNS1 cell line) that had been transfected to overexpress fibulin-3. Overexpression of fibulin-3 in the glioma cells increased Notch signaling activity as expected.
Glioma cells (CNS1 line) carrying a Notch-driven luminescent reporter system were transfected with fibulin-3 cDNA (Fib3 OE) or a control plasmid (Control) and incubated in serum-free conditions for 24 h. The following day the antibodies anti-Fib3/911 (50 μg/ml) or mAb428.3C11 (100 μg/ml) were added to the cultures and Notch activity was measured after 0, 2, 6, and 24 h.
Glioma cells (CNS1 line) carrying a Notch-driven luminescent reporter system were transfected with fibulin-3 cDNA (Fib3 OE) or a control plasmid (Control) and incubated in serum-free conditions for 24 h. Results on the left panel show the effect of adding mAb428.2 (100 μg/ml), followed by measurement of Notch activity after 0, 2, 6, and 24 h. Results on the right panel show the effect of adding variable concentrations of mAb428.2 (0, 5, 10, 25, 50, and 100 μg/ml), followed by measurement of Notch activity after 6 h.

fibulin-5 = target: T1, fibulin-5 (Homo sapiens, UniProt Q9UBX5); experiment: Cross-reactivity against homologous fibulin-5; format: binding
T1 sequence (Q9UBX5 24-448): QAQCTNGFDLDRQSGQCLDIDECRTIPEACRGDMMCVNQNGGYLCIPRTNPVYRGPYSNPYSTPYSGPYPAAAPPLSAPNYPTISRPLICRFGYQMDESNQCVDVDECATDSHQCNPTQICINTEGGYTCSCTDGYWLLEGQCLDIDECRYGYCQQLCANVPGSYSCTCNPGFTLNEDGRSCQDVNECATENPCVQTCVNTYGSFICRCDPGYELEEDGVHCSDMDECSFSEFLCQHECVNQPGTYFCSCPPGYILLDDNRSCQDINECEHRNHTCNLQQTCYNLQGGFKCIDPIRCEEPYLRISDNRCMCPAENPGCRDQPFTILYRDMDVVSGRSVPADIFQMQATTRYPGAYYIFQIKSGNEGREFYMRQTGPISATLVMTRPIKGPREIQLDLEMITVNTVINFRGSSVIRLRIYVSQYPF

[2] = system: NFkB signaling induced by fibulin-3; experiment: NF-kB luminescent reporter in U251 glioma cells transfected with fibulin-3 cDNA; format: cell-based; settings: 100 μg/ml, 0, 2, 6 and 24 h
Experimental: Glioma cells (U251 line) were transfected with a luminescent reporter plasmid driven by NF-kB signaling (pGL4.32[luc2P/NF-κB-RE/Hygro], PROMEGA). Cells were co-transfected with plasmids carrying fibulin-3 cDNA (Fib3 OE) or a control cDNA (Control) and incubated in serum-free conditions for 24 h. The following day mAb428.2 (100 μg/ml) was added to the cultures and NFkB signaling activity was measured after 0, 2, 6, and 24 h.

[3] = system: GBM34 glioblastoma stem cells; experiment: Intravenous injection in subcutaneous GBM34 xenografts, growth and overall survival; format: in vivo, Athymic mice
Experimental: Athymic mice received SQ bilateral implants of GBM34 glioblastoma stem cells (1×10^6 cells/50 μl). Tumors were allowed to grow until they reached a volume of 100 mm^3. Animals (N=5/group) were then injected with mAb428.2 (30 mg/kg) or non-immune mouse IgG1 every day, for a total of 8 days (total: 8 injections). Mice were monitored for tumor growth and sacrificed when any of their tumors reached a length >=20 mm. Long-term survivors (>40 days) in which length was not increasing above 20 mm were euthanized when tumors reached width >=15 mm or presented ulcerations. […] Curves for overall survival were compared by long-rank test

[4] = mouse, in vivo

B1: mAb428.2: mouse monoclonal IgG1 kappa antibody against human fibulin-3 peptide SEQ ID NO:2; VH SEQ ID NO: 3, VL SEQ ID NO: 4 (antibody, V domains shown)
VH: QIQLVQSGPELKKPGETVKISCKASGYSFTTYGMSWVKQAPGKGLKWMGWINTYSGVPTYADDFKGRFAFFLETSASTAYLQINNLKNEDTATYFCARWVDYWGQGTTLTVSS
VL: DIKMTQSPSSMYASLGERVTITCKASQDIKSYLSWHQQKPWKSPKTLIYYATSLADGVPSRFSGSGSGQDYSLTISSLESDDTATYYCLQHGKSPYTFGGGTKLEIK
effect on normal astrocytes (Normal human astrocytes): without effects on normal astrocytes | dependence of Notch inhibition ([1]; 0, 5, 10, 25, 50 and 100 μg/ml, 6 h, 100 μg/ml over 0-24 h): time- and concentration-dependent | effect on fibulin-3-induced Notch activity [1]: blocked fibulin-3-dependent Notch activation; also recorded: strong inhibitory effect | effect on fibulin-3-induced Notch activity ([1]; listed as mAb428.3C11): blocked | fibulin-3 effect on Notch activation ([1]; t=4 h, anti-Fib3/911 50 μg/ml, mAb428.3C11 100 μg/ml): completely abolished fibulin-3 effects on Notch activation | levels of Notch activity ([1]; t=24 h, anti-Fib3/911 50 μg/ml, mAb428.3C11 100 μg/ml): indistinguishable from controls | cross-reactivity against fibulin-5 (fibulin-5): no cross-reactivity | effect on fibulin-3-induced NFkB signaling [2]: blocking of this effect | overall survival compared to control IgG1 ([3]; 30 mg/kg IV every day, 8 injections): extended overall survival two-fold; also recorded: significant prolongation of overall survival | tumor growth ([3]; IV 8×30 mg/kg): significant delay in tumor growth | accumulation in skin or connective tissues [4]: did not accumulate in these tissues | amount detected through the skull [4]: very small but higher than the amount of a control IgG1 antibody | detection in intracranial tumors [4]: not detected in significant amounts | detection in subcutaneous tumors ([4]; 2.5 mg/kg): still detectable with high intensity of fluorescence | time of accumulation in the liver ([4]; 2.5 mg/kg): >= 6 | time of accumulation of fluorescence in the bladder ([4]; 2.5 mg/kg): 2 h | time of clearance from bladder and liver ([4]; 2.5 mg/kg): >= 24 h
